Measurements published in patent US20220236279A1.

Tests used:
[1] = target: human atypical chemokine receptor 3 (ACKR3) (human) (UniProt P25106); test: binding competition with CXCL12-AF647, flow cytometry
[2] = target: human atypical chemokine receptor 3 (ACKR3) (human) (UniProt P25106); test: cell-based or functional assay

human atypical chemokine receptor 3 (ACKR3) (human), sequence (P25106 whole entry): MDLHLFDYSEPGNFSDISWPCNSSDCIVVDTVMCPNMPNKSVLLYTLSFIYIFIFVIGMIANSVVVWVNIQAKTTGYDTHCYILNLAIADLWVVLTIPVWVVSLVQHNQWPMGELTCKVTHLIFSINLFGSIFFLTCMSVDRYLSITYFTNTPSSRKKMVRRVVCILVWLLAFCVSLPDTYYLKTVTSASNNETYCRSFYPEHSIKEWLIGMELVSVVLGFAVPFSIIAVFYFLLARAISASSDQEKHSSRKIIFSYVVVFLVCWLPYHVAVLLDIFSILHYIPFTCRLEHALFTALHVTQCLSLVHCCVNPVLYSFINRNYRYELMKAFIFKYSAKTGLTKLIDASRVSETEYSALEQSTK

IC50 [1] [nM]	EC50, β-arrestin recruitment (NanoBiT) [2] [nM]	Substance
> 10000	–	nociceptin 1-13 amide
–	2.2	CXCL11 (C-X-C motif chemokine 11) (from UniProt O14625 22-94) (ligand)
